Measured values from the Human Domainome abundance scans (Beltran et al. 2025).
± gives the uncertainty stated by the source.

B1: Pyruvate dehydrogenase protein X component, mitochondrial, residues 181 to 227; numbered along this chain, O00330 (parent)
chain: RFRLSPAARNILEKHSLDASQGTATGPRGIFTKEDALKLVQLKQTGK

Variants of: B1
Test: abundance fitness (aPCA) (normalised: wild type 0, dead -1); higher = more abundant; growth selection in yeast, the domain comes from the species named
Conditions: Homo sapiens

Row | Variant | abundance fitness
1 | RFRLSPAARNILPKHSLDASQGTATGPRGIFTKEDALKLVQLKQTGK | -0.564 ± 0.11
2 | RFRLSPAARNILMKHSLDASQGTATGPRGIFTKEDALKLVQLKQTGK | -0.661 ± 0.13
3 | RFRLSPAARNALEKHSLDASQGTATGPRGIFTKEDALKLVQLKQTGK | -0.356 ± 0.057
4 | RFRLSPAARNWLEKHSLDASQGTATGPRGIFTKEDALKLVQLKQTGK | -0.786 ± 0.092
5 | RFRLSPAARNRLEKHSLDASQGTATGPRGIFTKEDALKLVQLKQTGK | -0.397 ± 0.054
6 | RFRLSPAARNILEKHSLDASQGTATGPRGYFTKEDALKLVQLKQTGK | -0.292 ± 0.12
7 | RFRLSPAARNILEKHSLDASQGTATGPRGLFTKEDALKLVQLKQTGK | 0.116 ± 0.04
8 | RFRLSPAARNILEKHSLDASQGTATGPRGGFTKEDALKLVQLKQTGK | -0.271 ± 0.047
9 | RFRLSPAARNILEKHSLDASQGTATGPRGPFTKEDALKLVQLKQTGK | -0.363 ± 0.08
10 | RFRLSPAARNILEKHSLDASQGTATGPRGIFTKEDALKLVQLKQTGE | 0.284 ± 0.2
11 | RFRLSPAARNILEKHSLDASQGTATGPRGIFTKEDALKLVQLKQTGR | -0.293 ± 0.35
12 | RFRLSPAARNILEKHSLDASQGTATGPRGIFTKEDALKLVQLKQTGT | -0.774 ± 0.48
13 | RFRLSPAANNILEKHSLDASQGTATGPRGIFTKEDALKLVQLKQTGK | -0.092 ± 0.048
14 | RFRLSPAARNILEKHSLDASQGTATGPRGIFTKEDALKLVQLKNTGK | -0.337 ± 0.14
15 | RFRLSPAARNILEKHSLDASQGTATGPRGIFTKEDALKLVQLKYTGK | -0.028 ± 0.11
16 | RFRLSPAARNILEKHSLDASQGTATGPRGIFTKEDALKLVQLKQTFK | -0.464 ± 0.31
17 | RFRLSPAARNILEKHSLDAWQGTATGPRGIFTKEDALKLVQLKQTGK | -0.788 ± 0.075
18 | RFRLSPAARNILEKHSLDADQGTATGPRGIFTKEDALKLVQLKQTGK | 0.087 ± 0.082
19 | RFRLSPAARNILEKHSLDAGQGTATGPRGIFTKEDALKLVQLKQTGK | -0.192 ± 0.053
20 | RFRLSPAARNILEKHSLDASQGTATGPRGIFTKEDALKLVQYKQTGK | -0.058 ± 0.14
21 | RFRLSPAARNILEKHSLDASQGTATGPRGIFTKEDALKLVQQKQTGK | 0.115 ± 0.064
22 | RFRLSPAARNILEKHSLDASQGTATGPRGIFTKEDALKLVQAKQTGK | 0.131 ± 0.052
23 | RFRLSPAARNILEKHSLDASQGTATGPRGIFTKEDALKLVQWKQTGK | -0.251 ± 0.068
24 | RFRLSPAARNILEKHSLDASQGTATGPRGIFNKEDALKLVQLKQTGK | -0.733 ± 0.18
25 | RFRLSPAARNILEKHSLDASQGTATGPRGIFHKEDALKLVQLKQTGK | -0.389 ± 0.045
26 | RFRLSPAARNILEKHSLDASQGTATGPRGIYTKEDALKLVQLKQTGK | -0.335 ± 0.071
27 | RARLSPAARNILEKHSLDASQGTATGPRGIFTKEDALKLVQLKQTGK | -0.536 ± 0.063
28 | RERLSPAARNILEKHSLDASQGTATGPRGIFTKEDALKLVQLKQTGK | -0.316 ± 0.059

Row | Variant | abundance fitness
29 | RVRLSPAARNILEKHSLDASQGTATGPRGIFTKEDALKLVQLKQTGK | -0.486 ± 0.056
30 | RYRLSPAARNILEKHSLDASQGTATGPRGIFTKEDALKLVQLKQTGK | -0.015 ± 0.083
31 | RKRLSPAARNILEKHSLDASQGTATGPRGIFTKEDALKLVQLKQTGK | -0.232 ± 0.073
32 | RFRLSPAARNILEKHSLDASQGTATGPRGIFTKEDALFLVQLKQTGK | -0.781 ± 0.11
33 | RFRLNPAARNILEKHSLDASQGTATGPRGIFTKEDALKLVQLKQTGK | -0.327 ± 0.2
34 | RFRLMPAARNILEKHSLDASQGTATGPRGIFTKEDALKLVQLKQTGK | -0.036 ± 0.062
35 | RFRLIPAARNILEKHSLDASQGTATGPRGIFTKEDALKLVQLKQTGK | -0.135 ± 0.19
36 | RFRLTPAARNILEKHSLDASQGTATGPRGIFTKEDALKLVQLKQTGK | -0.032 ± 0.064
37 | RFRLCPAARNILEKHSLDASQGTATGPRGIFTKEDALKLVQLKQTGK | -0.608 ± 0.11
38 | RFRLSPAARNILEKHSLDASQWTATGPRGIFTKEDALKLVQLKQTGK | -0.712 ± 0.074
39 | RFRLSPAARNILEKHSLDASQETATGPRGIFTKEDALKLVQLKQTGK | -0.43 ± 0.078
40 | RFRLSPAARNILEKHSLDASQCTATGPRGIFTKEDALKLVQLKQTGK | -0.419 ± 0.081
41 | RFRLSPAARNILEKHSLDASQLTATGPRGIFTKEDALKLVQLKQTGK | -0.475 ± 0.047
42 | RFRLSPANRNILEKHSLDASQGTATGPRGIFTKEDALKLVQLKQTGK | -0.817 ± 0.18
43 | RFRLSPAARNILEKHSLDYSQGTATGPRGIFTKEDALKLVQLKQTGK | -0.236 ± 0.15
44 | RFRLSPAARNILEKHSLDVSQGTATGPRGIFTKEDALKLVQLKQTGK | -0.227 ± 0.053
45 | RFRLSPAARNILEKHSLDASQGTSTGPRGIFTKEDALKLVQLKQTGK | -0.271 ± 0.059
46 | RFRLSPAARNILEKHSLDASQGTYTGPRGIFTKEDALKLVQLKQTGK | -1.07 ± 0.25
47 | RFRLSPAARNILEKHSLDASQGTATGPRGIFTKEDALKLVNLKQTGK | -0.159 ± 0.12
48 | RFRLSPAARNILEKHSLDASQGTATGPRGIFTKEDALKLVCLKQTGK | -0.855 ± 0.19
49 | RFRLSPAARNILEKHSLDASQGTATGPRGIFTKEGALKLVQLKQTGK | -0.565 ± 0.079
50 | RFRLSPAARNIKEKHSLDASQGTATGPRGIFTKEDALKLVQLKQTGK | -0.481 ± 0.11
51 | RFRLSPAARNITEKHSLDASQGTATGPRGIFTKEDALKLVQLKQTGK | -0.181 ± 0.057
52 | RFRLSPAARNIIEKHSLDASQGTATGPRGIFTKEDALKLVQLKQTGK | -0.121 ± 0.062
53 | RFRLSPAARNIHEKHSLDASQGTATGPRGIFTKEDALKLVQLKQTGK | -0.504 ± 0.11
54 | RFRLSPAARNILEKHSLDASQGTATGPCGIFTKEDALKLVQLKQTGK | -0.072 ± 0.051
55 | RFRLSPAARNILEKHSLDASQGTATGPQGIFTKEDALKLVQLKQTGK | -0.314 ± 0.11
